Substitutions are numbered along the chain they refer to.
Legend:
[1] = target: T1, RpnAL (full-length RpnA, wild type, in the native RpnALS complex) (E. coli, UniProt P31667 1-292); assay: SEC-MALS; multi-angle light scattering coupled with size exclusion chromatography of purified RpnAS and of the purified RpnALS complex; conditions: both partners purified
T1 construct: source: E. coli, WT rpnA gene in an overexpression vector, C-terminally tagged intein fusion, purified together with RpnAS
T1 sequence (looked up): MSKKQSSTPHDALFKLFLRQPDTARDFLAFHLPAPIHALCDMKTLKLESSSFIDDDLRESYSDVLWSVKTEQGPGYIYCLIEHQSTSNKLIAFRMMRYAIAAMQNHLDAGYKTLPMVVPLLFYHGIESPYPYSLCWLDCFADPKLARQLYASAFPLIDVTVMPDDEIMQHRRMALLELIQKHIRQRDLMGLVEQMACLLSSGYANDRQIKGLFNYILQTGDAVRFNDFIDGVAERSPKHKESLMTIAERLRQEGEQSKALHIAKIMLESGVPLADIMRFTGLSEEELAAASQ

[2] = target: the molecule itself; assay: as above
[3] = target: T2, RpnAL* (RpnA_(K240R+E241D+M244L)) (E. coli, UniProt P31667 1-292, K240R | E241D | M244L); assay: SEC; Superdex 200 column; individually purified proteins alone and mixed, and the native co-purified RpnALS complex; peak fractions checked by SDS-PAGE; conditions: both partners purified
T2 construct: source: E. coli, overexpressed as C-terminally tagged intein fusion protein, purified
T2 sequence (looked up): T1 sequence (looked up) with K240R, E241D, M244L

B1: RpnAS (natural protein, E. coli, UniProt P31667 244-292, looked up)
chain: MTIAERLRQEGEQSKALHIAKIMLESGVPLADIMRFTGLSEEELAAASQ
notes: also called RpnS of RpnA; small C-terminal protein of RpnA
- stoichiometry N [1]: 1 RpnAS per RpnAL (2:2)
- stoichiometry N [2]: 2
- binding result [3]: binds

Reference: article doi:10.1101/2023.05.02.539157, “Toxic anti-phage defense proteins inhibited by intragenic antitoxin proteins” (bioRxiv, 2023)
